Reference: patent EP4667491A1

Biological target: human CNTN4 expressed on the cell surface (human) (UniProt Q8IWV2)
Assay: flow cytometry; IgG on human CNTN4-overexpressing HEK293 cells

Sequence of human CNTN4 expressed on the cell surface (human) (Q8IWV2 19-1000): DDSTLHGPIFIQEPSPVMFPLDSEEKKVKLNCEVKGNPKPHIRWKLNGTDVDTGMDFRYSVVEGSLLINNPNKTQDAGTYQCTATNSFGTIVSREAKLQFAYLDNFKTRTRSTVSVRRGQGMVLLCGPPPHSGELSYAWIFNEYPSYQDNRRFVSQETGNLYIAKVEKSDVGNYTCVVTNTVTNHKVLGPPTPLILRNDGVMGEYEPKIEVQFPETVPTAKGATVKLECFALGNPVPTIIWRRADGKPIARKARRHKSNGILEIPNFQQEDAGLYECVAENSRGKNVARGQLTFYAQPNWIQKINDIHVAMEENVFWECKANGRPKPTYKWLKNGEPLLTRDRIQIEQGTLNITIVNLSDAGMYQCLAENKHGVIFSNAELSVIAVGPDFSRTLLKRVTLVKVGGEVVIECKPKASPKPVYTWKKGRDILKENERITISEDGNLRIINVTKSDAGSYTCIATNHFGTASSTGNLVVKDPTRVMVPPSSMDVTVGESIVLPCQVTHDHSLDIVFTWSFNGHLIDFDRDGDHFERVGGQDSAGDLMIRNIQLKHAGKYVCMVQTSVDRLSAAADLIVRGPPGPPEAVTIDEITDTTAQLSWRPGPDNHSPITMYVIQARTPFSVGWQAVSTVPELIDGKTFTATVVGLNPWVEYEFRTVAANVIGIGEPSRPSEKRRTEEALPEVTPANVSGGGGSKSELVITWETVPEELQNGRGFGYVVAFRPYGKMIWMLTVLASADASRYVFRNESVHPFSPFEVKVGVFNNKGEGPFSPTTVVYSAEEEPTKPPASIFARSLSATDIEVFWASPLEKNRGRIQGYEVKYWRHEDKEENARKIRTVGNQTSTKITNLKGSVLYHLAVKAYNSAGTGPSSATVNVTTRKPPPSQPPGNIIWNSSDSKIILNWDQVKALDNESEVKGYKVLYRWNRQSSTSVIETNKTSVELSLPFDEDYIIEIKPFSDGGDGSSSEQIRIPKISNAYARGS

human IgG4 antibody (negative control) showed a Top MFI of 13 MFI.
